Source: paper PMC4264193, “Structures of the Inducer-Binding Domain of Pentachlorophenol-Degrading Gene Regulator PcpR from Sphingobium chlorophenolicum” (International Journal of Molecular Sciences, 2014)

Target: the molecule itself
Assay: SEC-MALS; 200 ug of PcpR loaded on a BioSep-SEC-S 2000 column, eluted isocratically at 0.5 mL/min; UV, refractometer and Dawn EOS light scattering detectors; Zimm fit; calculated mass ~50 kD

B1: PcpR inducer-binding domain (residues from 85 to the C-terminus of PcpR) (domain or fragment, Sphingobium chlorophenolicum L-1, UniProt P52679 85-307, looked up)
chain: RSELRFDPGTSNRNFRIAASDFGQALMLPRLYATLEETAPQVRVTGVNLRHGPLVEELESGSIDIAFGGFPTLSAGIKTQTLFREEYVCVMRQSHPALTHGLDLEAFRQCRHIIVTAHEFNHVHEQVEARLLELLPPESIRFTTENFLVSAVIAEETDVILTIPSRLARWFANRGGLTIFPVPIELPSIEVKQYWHERYDKDPGNIWLRRVIAKIGFQNPPAE
notes: PcpR, LysR-type transcription factor of Sphingobium chlorophenolicum L-1; Cloned into pET30-LIC and expressed as a C-terminal HIS6X fusion protein; also called PcpR IBD; source: E. coli BL21(DE3), purified (nickel-nitrilotriacetate column, Mono Q anion exchange)
- stoichiometry N: 2
